From patent US11994512B2, “Single-cell genomic methods to generate ex vivo cell systems that recapitulate in vivo biology with improved fidelity” (Massachusetts Institute of Technology, priority 2018, dated 2024)

B1: Q9WVJ3 (protein, UniProt Q9WVJ3 1-470, looked up)
chain: MRSLFFLFIVHLLALGSGKAVFKNGVSQRTFREIKEEIANYEDVAKAIINLAVYGKYQNRSYERLGLLVDTVGPRLSGSKNLEKAIQIMYQNLQQDGLENVHLEQVRIPHWERGEESAVMLEPRIHKMAILGLGSSIGTPPGGITAEVLVVASFDELQRRASEARGKIIVYNQPYTGYEKTVQYRVQGAVEAAKVGAVASLIQSVASFSIYSPHTGIQKYQDGVPKIPTACITVEDAEMMSRMASRGNKIVIHLEMGAKTYPDTDSFNTVAEITGSMYPEEVVLVSGHLDSWDVGQGALDDGGGAFISWEALSLVKDLGLRPKRTLRLVLWTAEEQGGIGASQYYELHKANISKYSLVMEADSGTFLPTGLQFTGSDKARAIMKEVMNLLQPLNVTKVFSNGEGTDINFWIQAGVPGASLRDDLYKYFFFHHSHGDTMTVMDPKQMNVAAAVWAVVAYVVADMDEMLPRS
modifications: full-length
B2: Q9R098 (protein, UniProt Q9R098 1-653, looked up)
chain: MGRQAWISSLCPLPRPCPFLLLLLLLVVPRGAQPQAGRNHTEPPGPNVTATPVTPTIPVISGNVSTSTESAPAAETEGPQSERYPPPSSSSPPGGQVLTESGQPCRFPFRYGGRMLHSCTSEGSAYRKWCATTHNYDRDRAWGYCAEVTLPVEGPAILDPCASGPCLNGGTCSSTHDHGSYHCSCPLAFTGKDCGTEKCFDETRYEYFEVGDHWARVSEGHVEQCGCMEGQARCEDTHHTACLSSPCLNGGTCHLIVGTGTSVCTCPLGYAGRFCNIVPTEHCFLGNGTEYRGVASTAASGLSCLAWNSDLLYQELHVDSVAAAVLLGLGPHAYCRNPDKDERPWCYVVKDNALSWEYCRLTACESLARVHSQTPEILAALPESAPAVRPTCGKRHKKRTFLRPRIIGGSSSLPGSHPWLAAIYIGNSFCAGSLVHTCWVVSAAHCFANSPPRDSITVVLGQHFFNRTTDVTQTFGIEKYVPYTLYSVFNPNNHDLVLIRLKKKGERCAVRSQFVQPICLPEAGSSFPTGHKCQIAGWGHMDENVSSYSNSLLEALVPLVADHKCSSPEVYGADISPNMLCAGYFDCKSDACQGDSGGPLVCEKNGVAYLYGIISWGDGCGRLNKPGVYTRVANYVDWINDRIRPPKRPVATS
modifications: full-length

Test system: intracellular proteome of ENR+CD and ENR organoids
Experiment: LC-MS/MS TMT proteomics of ENR+CD versus ENR organoids
Assay type: cell-based, C57BL/6 mice
Details: for Average logFC: ENR+CD versus ENR organoids, sample pairs in aggregate (n=4, 2 technical replicates from two biological donors); for M1-1 Log2 Median Normalized / M1-2 Log2 Median Normalized / M2-1 Log2 Median Normalized / M2-2 Log2 Median Normalized: protein abundance ratio ENR+CD versus ENR organoids, LC-MS/MS TMT proteomics; for M1-1 Log2 Median Normalized: sample pair M1-1; for M1-2 Log2 Median Normalized: sample pair M1-2; for M2-1 Log2 Median Normalized: sample pair M2-1; for M2-2 Log2 Median Normalized: sample pair M2-2; for change: up = enriched in ENR+CD, down = enriched in ENR, FDR<0.05 and log fold change cut-off

| Molecule | Average logFC | M1-1 Log2 Median Normalized | M1-2 Log2 Median Normalized | M2-1 Log2 Median Normalized | M2-2 Log2 Median Normalized | change |
| --- | --- | --- | --- | --- | --- | --- |
| B1 | 1.351 | 1.348 | 0.221 | 2.1645 | 1.67 | up |
| B2 | 1.366 | 1.864 | 1.188 | 0.7445 | 1.669 | up |
